Laboratory results from US20260242735A1 (UNIVERSIT T BASEL, published 2026).

Columns and labels:
Assay in all cases: alanine scan, flow cytometry, HEK293-T;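 note: antibody binding to each alanine-substituted CD33 mutant expressed transiently in HEK293-T, read as fluorescence minus background, mean of duplicates, relative to wild-type CD33 set as 100%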
human CD33 D107A = human CD33 D107A (human, UniProt P20138 18-364)
human CD33 R69A = human CD33 R69A (human, UniProt P20138 18-364)
human CD33 L103A = human CD33 L103A (human, UniProt P20138 18-364)
human CD33 S104A = human CD33 S104A (human, UniProt P20138 18-364)
human CD33 S71A = human CD33 S71A (human, UniProt P20138 18-364)
human CD33 N99A = human CD33 N99A (human, UniProt P20138 18-364)
human CD33 S97A = human CD33 S97A (human, UniProt P20138 18-364)
human CD33 D70A = human CD33 D70A (human, UniProt P20138 18-364)
human CD33 P72A = human CD33 P72A (human, UniProt P20138 18-364)
human CD33 S68A = human CD33 S68A (human, UniProt P20138 18-364)
human CD33 Y59A = human CD33 Y59A (human, UniProt P20138 18-364)
human CD33 I66A = human CD33 I66A (human, UniProt P20138 18-364)
human CD33 F118A = human CD33 F118A (human, UniProt P20138 18-364)
human CD33 Q83A = human CD33 Q83A (human, UniProt P20138 18-364)
human CD33 R89A = human CD33 R89A (human, UniProt P20138 18-364)
human CD33 Y49A = human CD33 Y49A (human, UniProt P20138 18-364)
human CD33 G64A = human CD33 G64A (human, UniProt P20138 18-364)
human CD33 G58A = human CD33 G58A (human, UniProt P20138 18-364)
human CD33 M120A = human CD33 M120A (human, UniProt P20138 18-364)
human CD33 P96A = human CD33 P96A (human, UniProt P20138 18-364)
human CD33 D112A = human CD33 D112A (human, UniProt P20138 18-364)
human CD33 L141A = target: T1, human CD33 L141A (human, UniProt P20138 18-364)
T1 construct: alanine scan clone, transfected HEK293-T

human CD33 T125A = target: T2, human CD33 T125A (human, UniProt P20138 18-364)
T2 construct: alanine scan clone, transfected HEK293-T

human CD33 L153A = target: T3, human CD33 L153A (human, UniProt P20138 18-364)
T3 construct: alanine scan clone, transfected HEK293-T

human CD33 Q171A = target: T4, human CD33 Q171A (human, UniProt P20138 18-364)
T4 construct: alanine scan clone, transfected HEK293-T

human CD33 S186A = target: T5, human CD33 S186A (human, UniProt P20138 18-364)
T5 construct: alanine scan clone, transfected HEK293-T

human CD33 F177A = target: T6, human CD33 F177A (human, UniProt P20138 18-364)
T6 construct: alanine scan clone, transfected HEK293-T

human CD33 S158A = target: T7, human CD33 S158A (human, UniProt P20138 18-364)
T7 construct: alanine scan clone, transfected HEK293-T

human CD33 R190A = target: T8, human CD33 R190A (human, UniProt P20138 18-364)
T8 construct: alanine scan clone, transfected HEK293-T

human CD33 L180A = target: T9, human CD33 L180A (human, UniProt P20138 18-364)
T9 construct: alanine scan clone, transfected HEK293-T

human CD33 G188A = target: T10, human CD33 G188A (human, UniProt P20138 18-364)
T10 construct: alanine scan clone, transfected HEK293-T

human CD33 W179A = target: T11, human CD33 W179A (human, UniProt P20138 18-364)
T11 construct: alanine scan clone, transfected HEK293-T

human CD33 P184A = target: T12, human CD33 P184A (human, UniProt P20138 18-364)
T12 construct: alanine scan clone, transfected HEK293-T

human CD33 K126A = target: T13, human CD33 K126A (human, UniProt P20138 18-364)
T13 construct: alanine scan clone, transfected HEK293-T

human CD33 S135A = target: T14, human CD33 S135A (human, UniProt P20138 18-364)
T14 construct: alanine scan clone, transfected HEK293-T

human CD33 K146A = target: T15, human CD33 K146A (human, UniProt P20138 18-364)
T15 construct: alanine scan clone, transfected HEK293-T
T15 sequence (P20138 18-364 K146A limits assumed): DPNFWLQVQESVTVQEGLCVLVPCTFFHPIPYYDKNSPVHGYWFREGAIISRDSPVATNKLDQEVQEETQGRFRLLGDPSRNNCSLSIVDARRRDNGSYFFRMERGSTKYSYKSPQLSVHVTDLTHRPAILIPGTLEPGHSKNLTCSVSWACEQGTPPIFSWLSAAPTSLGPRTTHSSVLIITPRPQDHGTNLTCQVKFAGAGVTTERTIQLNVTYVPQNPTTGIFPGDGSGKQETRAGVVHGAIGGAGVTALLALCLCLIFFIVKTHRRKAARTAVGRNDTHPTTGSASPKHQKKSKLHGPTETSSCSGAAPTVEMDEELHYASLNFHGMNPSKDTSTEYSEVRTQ

Sequence of human CD33 G58A (P20138 18-364 G58A limits assumed): as the sequence (P20138 18-364 K146A limits assumed) above, with G41A, A129K counted along it
Sequence of human CD33 Y49A (P20138 18-364 Y49A limits assumed): as the sequence (P20138 18-364 K146A limits assumed) above, with Y32A, A129K counted along it
Sequence of human CD33 R69A (P20138 18-364 R69A limits assumed): as the sequence (P20138 18-364 K146A limits assumed) above, with R52A, A129K counted along it
Sequence of human CD33 Y59A (P20138 18-364 Y59A limits assumed): as the sequence (P20138 18-364 K146A limits assumed) above, with Y42A, A129K counted along it
T11 sequence (P20138 18-364 W179A limits assumed): as the sequence (P20138 18-364 K146A limits assumed) above, with A129K, W162A counted along it
Sequence of human CD33 S97A (P20138 18-364 S97A limits assumed): as the sequence (P20138 18-364 K146A limits assumed) above, with S80A, A129K counted along it
Sequence of human CD33 L103A (P20138 18-364 L103A limits assumed): as the sequence (P20138 18-364 K146A limits assumed) above, with L86A, A129K counted along it
Sequence of human CD33 N99A (P20138 18-364 N99A limits assumed): as the sequence (P20138 18-364 K146A limits assumed) above, with N82A, A129K counted along it
T10 sequence (P20138 18-364 G188A limits assumed): as the sequence (P20138 18-364 K146A limits assumed) above, with A129K, G171A counted along it
T4 sequence (P20138 18-364 Q171A limits assumed): as the sequence (P20138 18-364 K146A limits assumed) above, with A129K, Q154A counted along it
T14 sequence (P20138 18-364 S135A limits assumed): as the sequence (P20138 18-364 K146A limits assumed) above, with S118A, A129K counted along it
Sequence of human CD33 F118A (P20138 18-364 F118A limits assumed): as the sequence (P20138 18-364 K146A limits assumed) above, with F101A, A129K counted along it
T12 sequence (P20138 18-364 P184A limits assumed): as the sequence (P20138 18-364 K146A limits assumed) above, with A129K, P167A counted along it
Sequence of human CD33 S68A (P20138 18-364 S68A limits assumed): as the sequence (P20138 18-364 K146A limits assumed) above, with S51A, A129K counted along it
Sequence of human CD33 D107A (P20138 18-364 D107A limits assumed): as the sequence (P20138 18-364 K146A limits assumed) above, with D90A, A129K counted along it
Sequence of human CD33 D112A (P20138 18-364 D112A limits assumed): as the sequence (P20138 18-364 K146A limits assumed) above, with D95A, A129K counted along it
Sequence of human CD33 P72A (P20138 18-364 P72A limits assumed): as the sequence (P20138 18-364 K146A limits assumed) above, with P55A, A129K counted along it
T13 sequence (P20138 18-364 K126A limits assumed): as the sequence (P20138 18-364 K146A limits assumed) above, with K109A, A129K counted along it
Sequence of human CD33 G64A (P20138 18-364 G64A limits assumed): as the sequence (P20138 18-364 K146A limits assumed) above, with G47A, A129K counted along it
T8 sequence (P20138 18-364 R190A limits assumed): as the sequence (P20138 18-364 K146A limits assumed) above, with A129K, R173A counted along it
Sequence of human CD33 P96A (P20138 18-364 P96A limits assumed): as the sequence (P20138 18-364 K146A limits assumed) above, with P79A, A129K counted along it
Sequence of human CD33 D70A (P20138 18-364 D70A limits assumed): as the sequence (P20138 18-364 K146A limits assumed) above, with D53A, A129K counted along it
Sequence of human CD33 I66A (P20138 18-364 I66A limits assumed): as the sequence (P20138 18-364 K146A limits assumed) above, with I49A, A129K counted along it
T5 sequence (P20138 18-364 S186A limits assumed): as the sequence (P20138 18-364 K146A limits assumed) above, with A129K, S169A counted along it
T2 sequence (P20138 18-364 T125A limits assumed): as the sequence (P20138 18-364 K146A limits assumed) above, with T108A, A129K counted along it
Sequence of human CD33 M120A (P20138 18-364 M120A limits assumed): as the sequence (P20138 18-364 K146A limits assumed) above, with M103A, A129K counted along it
T1 sequence (P20138 18-364 L141A limits assumed): as the sequence (P20138 18-364 K146A limits assumed) above, with L124A, A129K counted along it
T6 sequence (P20138 18-364 F177A limits assumed): as the sequence (P20138 18-364 K146A limits assumed) above, with A129K, F160A counted along it
T9 sequence (P20138 18-364 L180A limits assumed): as the sequence (P20138 18-364 K146A limits assumed) above, with A129K, L163A counted along it
Sequence of human CD33 Q83A (P20138 18-364 Q83A limits assumed): as the sequence (P20138 18-364 K146A limits assumed) above, with Q66A, A129K counted along it
Sequence of human CD33 S71A (P20138 18-364 S71A limits assumed): as the sequence (P20138 18-364 K146A limits assumed) above, with S54A, A129K counted along it
T7 sequence (P20138 18-364 S158A limits assumed): as the sequence (P20138 18-364 K146A limits assumed) above, with A129K, S141A counted along it
T3 sequence (P20138 18-364 L153A limits assumed): as the sequence (P20138 18-364 K146A limits assumed) above, with A129K, L136A counted along it
Sequence of human CD33 R89A (P20138 18-364 R89A limits assumed): as the sequence (P20138 18-364 K146A limits assumed) above, with R72A, A129K counted along it
Sequence of human CD33 S104A (P20138 18-364 S104A limits assumed): as the sequence (P20138 18-364 K146A limits assumed) above, with S87A, A129K counted along it

Binder | Mean % WT Binding (human CD33 D107A) [% WT binding] | Mean % WT Binding (human CD33 R69A) [% WT binding] | Mean % WT Binding (human CD33 L103A) [% WT binding] | Mean % WT Binding (human CD33 S104A) [% WT binding] | Mean % WT Binding (human CD33 S71A) [% WT binding] | Mean % WT Binding (human CD33 N99A) [% WT binding] | Mean % WT Binding (human CD33 S97A) [% WT binding] | Mean % WT Binding (human CD33 D70A) [% WT binding] | Mean % WT Binding (human CD33 P72A) [% WT binding] | Mean % WT Binding (human CD33 S68A) [% WT binding] | Mean % WT Binding (human CD33 Y59A) [% WT binding] | Mean % WT Binding (human CD33 I66A) [% WT binding] | Mean % WT Binding (human CD33 F118A) [% WT binding] | Mean % WT Binding (human CD33 Q83A) [% WT binding] | Mean % WT Binding (human CD33 R89A) [% WT binding] | Mean % WT Binding (human CD33 Y49A) [% WT binding] | Mean % WT Binding (human CD33 G64A) [% WT binding] | Mean % WT Binding (human CD33 G58A) [% WT binding] | Mean % WT Binding (human CD33 M120A) [% WT binding] | Mean % WT Binding (human CD33 P96A) [% WT binding] | other results
Refmab #6 (antibody, V domains shown, Full-length format is human IgG1 Fc silent (PG-LALA); also made as Fab; The alanine scan used IgG or Fab) VH: QVQLQQPGAEVVKPGASVKMSCKASGYTFTSYYIHWIKQTPGQGLEWVGVIYPGNDDISYNQKFQGKATLTADKSSTTAYMQLSSLTSEDSAVYYCAREVRLRYFDVWGQGTTVTVSS VL: EIVLTQSPGSLAVSPGERVTMSCKSSQSVFFSSSQKNYLAWYQQIPGQSPRLLIYWASTRESGVPDRFTGSGSGTDFTLTISSVQPEDLAIYYCHQYLSSRTFGQGTKLEIK | 96.5 | 101 | 61.5 | 90.9 | 99.4 | 92 | 93.7 | 80.3 | 92.3 | 86.4 | 83.2 | 93.7 | 4.9 | 108 | 80.8 | 113 | 92.9 | 73.9 | 76.3 | 92.3 | Mean % WT Binding (human CD33 D112A): 51.6 % WT binding
Refmab #6 (antibody, V domains shown, The alanine scan used IgG or Fab) VH: QVQLQQPGAEVVKPGASVKMSCKASGYTFTSYYIHWIKQTPGQGLEWVGVIYPGNDDISYNQKFQGKATLTADKSSTTAYMQLSSLTSEDSAVYYCAREVRLRYFDVWGQGTTVTVSS VL: EIVLTQSPGSLAVSPGERVTMSCKSSQSVFFSSSQKNYLAWYQQIPGQSPRLLIYWASTRESGVPDRFTGSGSGTDFTLTISSVQPEDLAIYYCHQYLSSRTFGQGTKLEIK |  |  |  |  |  |  |  |  |  |  |  |  |  |  |  |  |  |  |  |  | Mean % WT Binding (human CD33 L141A): 97.5 % WT binding; Mean % WT Binding (human CD33 T125A): 112 % WT binding; Mean % WT Binding (human CD33 L153A): 94.3 % WT binding; Mean % WT Binding (human CD33 Q171A): 99.6 % WT binding; Mean % WT Binding (human CD33 S186A): 110 % WT binding; Mean % WT Binding (human CD33 F177A): 48.7 % WT binding; Mean % WT Binding (human CD33 S158A): 95.2 % WT binding; Mean % WT Binding (human CD33 R190A): 112 % WT binding; Mean % WT Binding (human CD33 L180A): 97.1 % WT binding; Mean % WT Binding (human CD33 G188A): 100 % WT binding; Mean % WT Binding (human CD33 W179A): 96.7 % WT binding; Mean % WT Binding (human CD33 P184A): 92.2 % WT binding; Mean % WT Binding (human CD33 K126A): 134 % WT binding; Mean % WT Binding (human CD33 S135A): 110 % WT binding; Mean % WT Binding (human CD33 K146A): 116 % WT binding
Refmab #5 (antibody, V domains shown, Full-length format is human IgG1 Fc silent (PG-LALA); also made as Fab; The alanine scan used IgG or Fab) VH: QVQLVQSGAEVKKPGASVKVSCKASGYTFTNYDINWVRQAPGQGLEWIGWIYPGDGSTKYNEKFKAKATLTADTSTSTAYMELRSLRSDDTAVYYCASGYEDAMDYWGQGTTVTVSS VL: DIQMTQSPSSLSASVGDRVTINCKASQDINSYLSWFQQKPGKAPKTLIYRANRLVDGVPSRFSGSGSGQDYTLTISSLQPEDFATYYCLQYDEFPLTFGGGTKVEIK | 119 | 164 | 91.6 | 109 | 150 | 88.4 | 126 | 112 | 116 | 142 | 205 | 105 | 11.1 | 97 | 137 | 20.6 | 136 | 112 | 73.2 | 114 | Mean % WT Binding (human CD33 D112A): 61.2 % WT binding
Refmab #5 (antibody, V domains shown, The alanine scan used IgG or Fab) VH: QVQLVQSGAEVKKPGASVKVSCKASGYTFTNYDINWVRQAPGQGLEWIGWIYPGDGSTKYNEKFKAKATLTADTSTSTAYMELRSLRSDDTAVYYCASGYEDAMDYWGQGTTVTVSS VL: DIQMTQSPSSLSASVGDRVTINCKASQDINSYLSWFQQKPGKAPKTLIYRANRLVDGVPSRFSGSGSGQDYTLTISSLQPEDFATYYCLQYDEFPLTFGGGTKVEIK |  |  |  |  |  |  |  |  |  |  |  |  |  |  |  |  |  |  |  |  | Mean % WT Binding (human CD33 L141A): 94.5 % WT binding; Mean % WT Binding (human CD33 T125A): 56.7 % WT binding; Mean % WT Binding (human CD33 L153A): 101 % WT binding; Mean % WT Binding (human CD33 Q171A): 105 % WT binding; Mean % WT Binding (human CD33 S186A): 112 % WT binding; Mean % WT Binding (human CD33 F177A): 57.3 % WT binding; Mean % WT Binding (human CD33 S158A): 99.2 % WT binding; Mean % WT Binding (human CD33 R190A): 112 % WT binding; Mean % WT Binding (human CD33 L180A): 118 % WT binding; Mean % WT Binding (human CD33 G188A): 114 % WT binding; Mean % WT Binding (human CD33 W179A): 133 % WT binding; Mean % WT Binding (human CD33 P184A): 107 % WT binding; Mean % WT Binding (human CD33 K126A): 134 % WT binding; Mean % WT Binding (human CD33 S135A): 108 % WT binding; Mean % WT Binding (human CD33 K146A): 149 % WT binding
